Assay: soluble on expression in E. coli; label from the status in PepcDB or PDB records

Sequence | soluble on expression in E. coli
MGSSHHHHHHSSGLVPRGSHMGSSHHHHHHSSGLVPRGSHMSQLAHNLTLSIFDPVANYRAARIICTIGPSTQSVEALKGLIQSGMSVARMNFSHGSHEYHQTTINNVRQAAAELGVNIAIALDTKGPEIRTGQFVGGDAVMERGATCYVTTDPAFADKGTKDKFYIDYQNLSKVVRPGNYIYIDDGILILQVQSHEDEQTLECTVTNSHTISDRRGVNLPGCDVDLPAVSAKDRVDLQFGVEQGVDMIFASFIRSAEQVGDVRKALGPKGRDIMIICKIENHQGVQNIDSIIEESDGIMVARGDLGVEIPAEKVVVAQKILISKCNVAGKPVICATQMLESMTYNPRPTRAEVSDVANAVFNGADCVMLSGETAKGKYPNEVVQYMARICLEAQSALNEYVFFNSIKKLQHIPMSADEAVCSSAVNSVYETKAKAMVVLSNTGRSARLVAKYRPNCPIVCVTTRLQTCRQLNITQGVESVFFDADKLGHDWGKEHRVAAGVEFAKSKGYVQTGDYCVVIHADHKVKGYANQTRILLVE | soluble
MKMLVGKIPSELLAKILEKLKPGDKVIVGPKVGIDATAIDFGDYVLVASTDPITGTEEKIGFYAVNINANDVATFGARPKWFLVTILLPEGSEFNDVITIMDEVREVAEGMGISIVGGHTEVTPGLKKPIVVGTMLGEVEKENLVVPNPRPGDAIILTKGAGIEGTSIIAHEREEELKGVFGSNFVERAKAFINEISIVREALLSREFATAMHDPTEGGIANGLHEMADINGLGFRIFANKVIIREETRKICHFYDLDPLALISSGALLISTPRDHAKFLIERLLSHGIQASIIGEFLAEKKRVIIENGAERPLKRPESDELWKVV | soluble
MHHHHHHGMASMTARPLSELVERGWAAALEPVADQVAHMGQFLRAEIAAGRRYLPAGSNVLRAFTFPFDNVRVLIVGQDPYPTPGHAVGLSFSVAPDVRPWPRSLANIFDEYTADLGYPLPSNGDLTPWAQRGVLLLNRVLTVRPSNPASHRGKGWEAVTECAIRALAARAAPLVAILWGRDASTLKPMLAAGNCVAIESPHPSPLSASRGFFGSRPFSRANELLVGMGAEPIDWRLP | soluble
MSYNLLGFLQRSSNFQSQKLLWQLNGRLEYCLKDRMNFDIPEEIKQLQQFQKEDAALTIYEMLQNIFAIFRQDSSSTGWNETIVENLLANVYHQINHLKTVLEEKLEKEDFTRGKLMSSLHLKRYYGRILHYLKAKEYSHCAWTIVRVEILRNFYFINRLTGYLRN | not soluble
MRKRKPLDYYLSLKYPVLLVAEPEGGYTALHPDLEGCVSVGETPEEALANLEEARRLWLEAAYEHGDEIPLPSTEREYSGRVLVRMPKSLHRRLDEEAKAEGVSLNQYIVSLPAERSSLRALKRELTRTGRAAEAPDSWEWGTSSGGGIWTGVLA | soluble
SNAMADGIYGSFENLKKHAGTMTLEAYMRFSAKLSEAKDEMGTKEYEVFTKELKKLTNAKLAYGDANGNIDYDALSPEKREEMKTVSMGLQPYFDKLNGHKSSKEVLTQEEFDRYMEALMTHEIVRVKTKSTGAIKVEEVPEAYKERFMKAEQFMEYVDEKVR | soluble
MNQTDTSPIRLRRSWNTSEIEALFDEHAGRIDPRIYTDEDLYQLELERVFARSWLLLGHETQIRKPGDYITTYMGEDPVVVVRQKDASIAVFLNQCRHRGMRICRADAGNAKAFTCSYHGWAYDTAGNLVNVPYEAESFACLNKKEWSPLKARVETYKGLIFANWDENAVDLDTYLGEAKFYMDHMLDRTEAGTEAIPGVQKWVIPCNWKFAAEQFCSDMYHAGTTSHLSGILAGLPEDLEMADLAPPTVGKQYRASWGGHGSGFYVGDPNLMLAIMGPKVTSYWTEGPASEKAAERLGSVERGSKLMVEHMTVFPTCSFLPGINTVRTWHPRGPNEVEVWAFTVVDADAPDDIKEEFRRQTLRTFSAGGVFEQDDGENWVEIQHILRGHKARSRPFNAEMSMDQTVDNDPVYPGRISNNVYSEEAARGLYAHWLRMMTSPDWDALKATR | soluble
MGSDKIHHHHHHMNLKHIEAFRAVMVSGSMTAAAKALFTSQPNVSRLIAQLERDTGLQLFQRSGVRLIPTSEGEAFFREVERAFVGLQGLANAAAQIRNLGSGRLRIAAMPSAGMTLVPHAIKRFVELFPDVTVSLHVNTSGTVNHWTASQFCDLGVAVYVSEASDCEVEQLSDLAAVCVMPAAHRLAAKRSIKPEDLEGESFISLCHGDGTRALMDEVFQRAGVQRVMAIEAQYTAMCCEMVRHGMGVTLAHPIVARDFAGPDIAIRPFLPATRFQTYLLFPPHRPRERLASAFVEVLRELHDELLAEVVVPTPSVGRRRVVRSASKG | not soluble
MTLLRGTVRTKTSCQLVSAIGTQNCTVWEGYEVSEITPGNSNTSYITWKRSVPNTNLSQPITSCPASTVKFPTCKVGWKLFPRYNTYWCLTLGINRRERDGYLLQFDQSFSYVACRWDGSEFIDGRISGLESNEERAYATDRAYQIMKQNMRETLFVFPSNVRLGWGVWVDGVKDVAGQVKYSDTTLNLKLGYKWDIGQPNWVSRKQACVMLMVPVNQSSRSNGSLRTAEYLRSI | not soluble
MEHFDVAIIGLGPAGSALARKLAGKMQVIALDKKHQCGTEGFSKPCGGLLAPDAQRSFIRDGLTLPVDVIANPQIFSVKTVDVAASLTRNYQRSYININRHAFDLWMKSLIPASVEVYHDSLCRKIWREDDKWHVIFRADGWEQHITARYLVGADGANSMVRRHLYPDHQIRKYVAIQQWFAEKHPVPFYSCIFDNAITDCYSWSISKDGYFIFGGAYPMKDGQTRFTTLKEKMSAFQFQFGKAVKSEKCTVLFPSRWQDFVCGKDNAFLIGEAAGFISASSLEGISYALDSAEILRAVFLKQPEKSNAAYWRATHKLRLKLFGKIVKSRCLTAPALRKWIMRSGVAHIPQLKDYPTRFTSPTSRM | not soluble
MGSDKIHHHHHHMLHRTCIQFHKFGNPKDVLQVEYKNIEPLKENEVLVRMLVRPINPSDLIPITGAYAHRIPLPNIPGYEGVGIVEDVGAFVSRDLIGKRVLPLRGEGTWQEYVKTSPDFVVPIPDSINDFTAAQMYINPLTAWVTCTETLNLQRNDVLLVNACGSAIGHLFAQLSQILNFRLIAVTRNNKHTEELLRLGAAYVIDTSTAPLYETVMTLTNGIGADAAIDSIGGPDGNELAFSLRPNGHFLTIGLLSGVQVNWAEIVTKAKVHANIFHLRHWNKEASSYKWQETFRHLIRLVENEQLRFMKVHSTYDLADVKAAVDVVQSAEKTKG | not soluble
INYEKVGLKVGLEIHQQLNTKRKLFCHCPTILRDDEPDGEIVRVLRPSLSEMGEVDRAALIEARKGKKFIYQFYNDTTCLVELDEEPPHPPSEEALRIALEVALLMNMNVVDVAYTMRKIVIDGSNTSGFQRTIFLARDGYIETSEGKVGITSLCLEEDAARKIEDRGDAVVYNLDRLGIPLVEISTAPDIKTPKMAKEAARRIGEILRATGKVKRGLGTIRQDINISIKDGARIEVKGVQDLDLIEKVVENEVIRQLNLL | not soluble
KLSSSEKNAILNAVSWYDADAEKVVKGTTKLAGDKLKELLAYLGCKEKELGDYGYFATEKKGEYLEYETESNLRDTENVPLKEAIYTYFLREVKPHVGEAWINLDATKIGYEISFNKYFYKHKPLRSIEDVTADILALEKESDGLIAEILGL | not soluble
MSLMKITSVDIIDVANDFASATSKWRPVVVKINTDEGISGFGEVGLAYGVGASAGIGMAKDLSAIIIGMDPMNNEAIWEKMLKKTFWGQGGGGIFSAAMSGIDIALWDIKGKAWGVPLYKMLGGKSREKIRTYASQLQFGWGDGSDKDMLTEPEQYAQAALTAVSEGYDAIKVDTVAMDRHGNWNQQNLNGPLTDKILRLGYDRMAAIRDAVGPDVDIIAEMHAFTDTTSAIQFGRMIEELGIFYYEEPVMPLNPAQMKQVADKVNIPLAAGERIYWRWGYRPFLENGSLSVIQPDICTCGGITEVKKICDMAHVYDKTVQIHVCGGPISTAVALHMETAIPNFVIHELHRYALLEPNTQTCKYNYLPKNGMYEVPELPGIGQELTEETMKKSPTITVKEGHHHHHH | soluble
MAHNYLLEIGLEEIPAHVVTPSIKQLVQKVTAFLKENRLTYDSIDHFSTPRRLAIRINGLGDQQPDIEEDAKGPARKIAQDADGNWTKAAIGFTRGQGLTVDDITFKTIKGTDYVYVHKLIKGKMTKEILTGLKEVVESINFPTMMKWANFDFKYVRPIRWLVSILDEEVLPFSILDVTAGRRTEGHRFLGEAVELANAEEYEAKLHDQFVIVDADERKQLISNQIKAIAESNRWNVTPNPGLLEEVNNLVEWPTAFNGGFDEKYLAIPEEVLITSMRDHQRFFFVRDQAGKLLPNFISVRNGNEEFIENVVRGNEKVLTARLEDAAFFYEEDQKHDINYYVDRLKKVSFHDKIGSMYEKLQRVNSIAKVIGNTLNLNQTELDDIDRATMIYKFDLVTGMVGEFSELQGVMGEKYAQLNGENQAVAQAIREHYMPNSAEGDLPESVTGAVVALADKFDNIFSFFSAGMIPSGSNDPYALRRHAYGIVRILNSRDWQLDLNQFKSQVKTELAENGTAFGVDVDQNFDQVLNFFNDRIKQLLDHQKISHDIVETVLTGNNHD | not soluble
MAHHHHHHMRCGGRWIVERSDGFVIEVEKPGVSVVFGRDIGLPSAQRMDGKYVSRQQFSVEWKASSLHVRQLGKNPTFYSMEFHTLPGDGTAEKELVCCREEETREGKQMGDGGKGLNVILVPPVSNENFLASLRGGAKGIEPATLHFPGELNLPRFTVRYVVADEKSSEEKISREMLTVPLGSSKSDEVEEDERANQPWMTGSWRGILDSVLHEQQQQQQQAER | not soluble
MGSDKIHHHHHHMTLHKICILGGTGFVGRHLAERLSQKGHAVRILTRNRERHRENLLVLPGVELIEANVHDPVALKKQLAGRDVVINLVGILNERHQGDFDRNHVELPRLVVGACNDLGIPRLLHMSALGASPTGPSAYLRSKGTGEEIVRQSNGNRAEMGRFDDLEEPMPLWSHGLKTTSFRPAVIFGEGDSFFNRFAGLLRRIPFFIPLARSKARMQPVWIEDVVSAYVQSMDDEKTYGQAYDLCGPKVYTLGELVAYTQSLIGTRRVIVPLGDFAGNLQASIMERLPGKVLTRDNLLSLSIDSVCTRNDLAESFQIEATSVESIVPGYLGGKGARAERLAEIRNRRS | not soluble
MTGILDSVNQRTQLVGQNRLELLTFRLMGRQRYGINVFKVKEVLQCPKLTSMPNLHPLVKGIAHIRGHTVSVIDLSLAIGGRPTTDIDKCFVVIAEFNRTIQAFLVSSVERIINMHWEAILPPPDGAGKAHYLTAVTNIDNELVEILDVEKILAEIAPVDETMDSTIGEEIAQAEQEKPIVR | not soluble
MVVAKPTAAVSIEDLIKKHSDVDPFLVKKWERIFSLFFDRNASHQVDWGDFYLVVKKVRDIYGAESVQTGFAKKSLAALWEGLCSIADADKDQLISIDEWIGLLKKTDAKTEPKWFKDYQNFMFKLFDVSCDGVMDLAEYTDGMSTYGFDQSECDAAFHKFSVDKKGQYVPQMKPETWNTYFHQLFYSTNKSDVGNHLFGIIDF | not soluble
MAHHHHHHMYRLVKFLYVNLLASTDLKRKYARAGDWAIVTGATEGIGYAMAMELARRGFNVCVVARTRSKLDAVVAEIEKKGVQGKAVVFDFSTADAQAYKRLFAELELLEVAILVNNVGVNYPYANYFDEADVEEDMKMLKVNCEATLRMTRFIVPRLKAKRSGGIVFLSSISATVPSPLLSAYAGTKSLSLSFGEGLAYELQQFGVDVLTVTPSLVVSRMTQGVSSRKPKETLFMVNAAAMAHQTLNKLGIVTRTAGHINHALLNSCLRILPESLVANKILTMHQAIKRRAERSRTQ | not soluble
MSQSDLVTIKNLRFSRSQRVIFDDIDLHVPKGKVTAIMGPSGIGKTTLLRLIGGQLLPEQGEIWFDGENIPTLSRRKLYRARKKMSMLFQSGALFTDLNVFDNVAYPLREHTELDEAMIKTLVLLKLEAVGLRGAAYLMPSELSGGMARRAALARAIALDPELIMYDEPFVGQDPITMGVLVELIRNLNRALGVTSVVVSHDVPEVMSIADWVYLLADGKVIAQGSPQALRDNPDPRVQQFLCGDADGPVPFRFPAQPIEQELFSAK | not soluble
